Test results taken from PMC11573672, “Analysis of the structure and interactions of the SARS-CoV-2 ORF7b accessory protein” (Proceedings of the National Academy of Sciences of the …, 2024).

Target: T1, SARS-CoV-2 ORF7b accessory protein, full length, with C-terminal SA linker and Strep-tag II (SARS-CoV-2, UniProt P0DTD8 1-43)
T1 construct: ORF7b of SARS-CoV-2, 43 residues, full length; NMR samples are isotope labelled on chosen amino acids (Leu, Phe and others); Forms heterogeneous multimers; no defined number of copies; also called ORF7b-ST; ORF7b^L:F; not shown: Strep-tag II, C-terminal, kept
T1 chain: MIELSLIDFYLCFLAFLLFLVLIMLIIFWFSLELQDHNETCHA
Experiment: solid-state NMR (2D hChH reverse-MIRROR, intermolecular polarization transfer)
Settings: both partners purified

B1: E-cadherin transmembrane domain (E641-R673), purified, Leu-labelled, for solid-state NMR (domain or fragment, human, UniProt P12830-2 641-673, looked up)
chain: EAGLQIPAILGILGGILALLILILLLLLFLRRR
notes: also called E-cadTM; E-cadTM^L; source: wheat-germ cell-free synthesis, purified
Q: Does B1 bind?
A: binds
